4 molecules from patent publication US20230151091A1 (NEW YORK UNIVERSITY, published 2023) can be followed below.

The target in test [1] is T1, hFz: Fz domain and C-terminal flanking sequence of human MuSK (K314-T495) with C-terminal Avi- and His6-tags (human, UniProt O15146 314-495, biotinylated in vitro using the BirA enzyme).
T1 construct: also called human Fz; not shown: Avi- and His6-tags
T1 sequence: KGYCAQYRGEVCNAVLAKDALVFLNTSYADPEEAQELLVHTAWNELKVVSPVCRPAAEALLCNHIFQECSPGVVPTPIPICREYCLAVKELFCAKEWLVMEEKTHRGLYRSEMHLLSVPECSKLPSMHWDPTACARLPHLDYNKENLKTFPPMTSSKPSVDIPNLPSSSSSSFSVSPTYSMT
In words: bead-binding assay, IgG format: biotinylated antigen on streptavidin beads, flow cytometry, 1:1 fit; average ± s.d., n=3. Background: In flow cytometry, cells or beads pass a laser one at a time.

Test [2] concerns the target T2, mECD: full-length extracellular region of mouse MuSK (E22 to T494) with C-terminal Avi- and His6-tags (mouse, UniProt Q61006 22-494, biotinylated in vitro using the BirA enzyme).
T2 construct: range 22-494; also called mouse ECD; not shown: Avi- and His6-tags
T2 sequence (looked up): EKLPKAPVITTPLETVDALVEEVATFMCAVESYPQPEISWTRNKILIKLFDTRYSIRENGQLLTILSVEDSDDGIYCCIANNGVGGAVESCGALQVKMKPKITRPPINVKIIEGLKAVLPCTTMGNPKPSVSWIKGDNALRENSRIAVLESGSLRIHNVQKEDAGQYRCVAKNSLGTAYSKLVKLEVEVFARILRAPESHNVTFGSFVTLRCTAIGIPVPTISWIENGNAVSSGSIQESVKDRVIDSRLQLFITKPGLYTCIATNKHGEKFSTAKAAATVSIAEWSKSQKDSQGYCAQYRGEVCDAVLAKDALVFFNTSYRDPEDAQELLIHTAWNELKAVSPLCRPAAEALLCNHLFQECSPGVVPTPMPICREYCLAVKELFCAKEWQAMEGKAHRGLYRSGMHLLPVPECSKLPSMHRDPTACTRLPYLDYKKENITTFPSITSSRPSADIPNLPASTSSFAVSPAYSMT
Described as above.

For test [3], the target named is T3, mFz: Fz domain and C-terminal flanking sequence of mouse MuSK (D307 to T494) with C-terminal Avi- and … (mouse, UniProt Q61006 307-494, limits assumed, biotinylated in vitro using the BirA enzyme).
T3 construct: also called mouse Fz; not shown: Avi- and His6-tags
T3 sequence (looked up): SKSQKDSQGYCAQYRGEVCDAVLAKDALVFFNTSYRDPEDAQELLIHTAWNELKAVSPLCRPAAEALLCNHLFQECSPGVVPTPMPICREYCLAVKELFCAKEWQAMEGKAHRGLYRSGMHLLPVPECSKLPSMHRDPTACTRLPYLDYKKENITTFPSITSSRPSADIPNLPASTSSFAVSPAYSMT
The test is described as above.

Test [4] concerns the target T4, hECD: full-length extracellular region of human MuSK (E22 to T495) with C-terminal Avi- and His6-tags (human, UniProt O15146 22-495, biotinylated in vitro using the BirA enzyme).
T4 construct: also called human ECD; not shown: Avi- and His6-tags
T4 sequence: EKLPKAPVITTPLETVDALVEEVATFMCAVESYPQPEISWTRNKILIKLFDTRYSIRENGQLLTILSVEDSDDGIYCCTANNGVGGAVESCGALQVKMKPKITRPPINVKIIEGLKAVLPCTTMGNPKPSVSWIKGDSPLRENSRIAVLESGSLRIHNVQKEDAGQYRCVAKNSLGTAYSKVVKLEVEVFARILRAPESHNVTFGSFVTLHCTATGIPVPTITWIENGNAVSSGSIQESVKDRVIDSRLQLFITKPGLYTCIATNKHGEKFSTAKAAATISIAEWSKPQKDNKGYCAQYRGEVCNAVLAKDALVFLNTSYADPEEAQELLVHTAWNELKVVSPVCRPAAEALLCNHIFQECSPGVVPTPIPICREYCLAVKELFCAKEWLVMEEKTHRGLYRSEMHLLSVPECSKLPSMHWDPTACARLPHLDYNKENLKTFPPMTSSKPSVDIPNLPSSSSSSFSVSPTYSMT
Described as above.

The target in test [5] is T5, human MuSK (human, UniProt O15146 24-495).
T5 construct: Recombinant protein coated on ELISA plates (R&D Systems cat. 10189-MK) or on the Biacore chip; also called human muscle-specific tyrosine protein kinase; full length human MuSK
T5 sequence: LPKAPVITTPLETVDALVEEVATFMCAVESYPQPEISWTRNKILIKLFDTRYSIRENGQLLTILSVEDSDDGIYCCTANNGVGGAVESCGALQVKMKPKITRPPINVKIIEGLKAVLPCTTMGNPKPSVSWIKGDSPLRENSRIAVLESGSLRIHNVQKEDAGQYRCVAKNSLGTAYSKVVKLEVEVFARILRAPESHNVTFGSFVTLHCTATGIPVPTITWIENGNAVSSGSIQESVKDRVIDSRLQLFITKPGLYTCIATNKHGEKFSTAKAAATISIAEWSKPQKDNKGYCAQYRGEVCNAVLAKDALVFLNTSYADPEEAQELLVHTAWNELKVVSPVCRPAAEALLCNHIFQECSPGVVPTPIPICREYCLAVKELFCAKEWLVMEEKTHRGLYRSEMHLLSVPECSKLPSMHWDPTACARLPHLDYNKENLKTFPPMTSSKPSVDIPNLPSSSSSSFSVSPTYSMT
Description: Biacore T200, MuSK on chip (200RU), 22.2 nM Fab, dissociation pH 7.4. The procedure: (§1) In order to study pH dependent binding of the antibodies described herein to MuSK, a Biacore T200 was used. Briefly, a CMS chip was coated with human and mouse MuSK (200RU) and 22.2 nM of Fab was applied and kinetic parameters calculated. Association was done at pH7.4, dissociation was done at pH 7.4 and also at pH 5.5. The following Fabs were tested, X2, X2m4, X3, X9, X17, 3B2 and 3B2g2m1 (Table 10 and FIG. 23). […] Binding affinity at pH 5.5 is very low, resulting in a rapid dissociation at endosomal pH allowing 3B2g2m1 to recycle.

Test [6] concerns the target T6, mouse MuSK (mouse, UniProt Q61006 22-494, limits assumed).
T6 construct: Coated on ELISA plates or on the Biacore chip; also called full length mouse MuSK; mouse MuSK (in house produced in HEK293 cells)
T6 sequence (looked up): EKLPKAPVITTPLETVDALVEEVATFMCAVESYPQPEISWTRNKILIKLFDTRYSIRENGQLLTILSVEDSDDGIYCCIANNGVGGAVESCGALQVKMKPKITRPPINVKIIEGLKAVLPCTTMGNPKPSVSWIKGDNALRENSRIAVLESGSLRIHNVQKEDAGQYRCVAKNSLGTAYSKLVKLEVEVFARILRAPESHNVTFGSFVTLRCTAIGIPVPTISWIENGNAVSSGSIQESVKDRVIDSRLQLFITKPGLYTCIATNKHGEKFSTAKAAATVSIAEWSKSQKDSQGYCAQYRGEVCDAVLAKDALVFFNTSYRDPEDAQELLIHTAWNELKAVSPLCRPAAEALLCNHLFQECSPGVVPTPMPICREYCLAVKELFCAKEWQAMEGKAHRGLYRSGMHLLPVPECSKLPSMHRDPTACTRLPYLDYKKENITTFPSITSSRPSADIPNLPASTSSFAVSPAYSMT
The test is described as above. The procedure:
as §1

The target in test [7] is T5, human MuSK. In words: Biacore T200, off rate at pH 5.5 against pH 7.4. The procedure: as §1
(In general: Surface plasmon resonance follows binding to a sensor surface in real time, without labels.)

In test [8] the target is T6, mouse MuSK. In words: Biacore T200, off rate at pH 5.5 against pH 7.4. The procedure:
as §1

The target of test [9] is T5, human MuSK. In words: Biacore T200, MuSK on chip (200RU), 22.2 nM Fab, dissociation pH 5.5. The method, then: as §1
The target of test [10] is T6, mouse MuSK. The test is described as above. The method, then:
as §1

B1: hIgG1-X17 (antibody, V domains shown)
VH: EVQLVESGGGLVQPGGSLRLSCAASGFTISYSSIHWVRQAPGKGLEWVASIYSSSGSTYYADSVKGRFTISADTSKNTAYLQMNSLRAEDTAVYYCARGDHGYYVFGYLGMDYWGQGTLVTVSS
VL: DIQMTQSPSSLSASVGDRVTITCRASQSVSSAVAWYQQKPGKAPKLLIYSASSLYSGVPSRFSGSRSGTDFTLTISSLQPEDFATYYCQQSYKPGALITFGQGTKVEIK
notes: human IgG1 Fc containing LALA mutations; also called hIgG-X17; X17 in human IgG1 format
As a reminder, the Kd is the equilibrium constant for the complex coming apart. The low end stands for tighter binding, the high end for weaker binding. Take B1: the Kd in test [1] turned out to be 560 pM; in test [2], 1040 pM; in test [3], 680 pM; in test [4], 860 pM.

B2: X2m4 Fab (Fab, V domains shown)
VH: EVQLVESGGGLVQPGGSLRLSCAASGFTVSSSSIHWVRQAPGKGLEWVASISSSYGSTSYADSVKGRFTISADTSKNTAYLQMNSLRAEDTAVYYCARSEGDRYVSGYSGLDYWGQGTLVTVSS
VL: DIQMTQSPSSLSASVGDRVTITCRASQSVSSAVAWYQQKPGKAPKLLIYSASSLYSGVPSRFSGSRSGTDFTLTISSLQPEDFATYYCQQSGVWLITFGQGTKVEIK
notes: Fab format
As usually defined, the koff is the first-order rate constant of dissociation. A high value points to fast dissociation. Regarding B2, the koff in the test with human MuSK [5] amounted to 0.00867 s⁻¹; with mouse MuSK [6], 0.00337 s⁻¹; in the test with human MuSK [9] it was 0.00586 s⁻¹; with mouse MuSK [10] it was 0.00416 s⁻¹. The “Ratio pH 5.5/7.4 of off rate” value in the test with human MuSK [7] was found to be 0.7; with mouse MuSK [8], 1.2.

B3: X9 Fab (Fab, V domains shown)
VH: EVQLVESGGGLVQPGGSLRLSCAASGFTFSSSSIHWVRQAPGKGLEWVASIYSSSGSTYYADSVKGRFTISADTSKNTAYLQMNSLRAEDTAVYYCARSGGEFYITSYYGMDYWGQGTLVTVSS
VL: DIQMTQSPSSLSASVGDRVTITCRASQSVSSAVAWYQQKPGKAPKLLIYSASSLYSGVPSRFSGSRSGTDFTLTISSLQPEDFATYYCQQSSSSLITFGQGTKVEIK
notes: Fab format
In the case of B3, the koff with human MuSK [5] stood at 0.00059 s⁻¹; with mouse MuSK [6], 0.00015 s⁻¹; with human MuSK [9], 0.00083 s⁻¹; in the test with mouse MuSK [10] it was 0.00105 s⁻¹. The entries for the “Ratio pH 5.5/7.4 of off rate” value in the test with human MuSK [7] and in the test with mouse MuSK [8] were 1.4 and 7.1, respectively.

B4: 3B2g2m1 Fab (Fab, V domains shown)
VH: EVQLLESGGGLVQPGGSLRLSCAASGFTFSDYGMSWVRQAPGKGLEWVSAIPWSGGSTYYKESVKGRFTISRDNSKNTLYLQMNSLRAEDTAVYYCAKRSGRIAFGALDAWGQGTLVTVSS
VL: QTVVTQEPSFSVSPGGTVTLTCGLSSGSVTSSNYPDWYQQTPGQAPRTLIYSTDSRHSGVPDRFSGSILGNKAALTITGAQADDESDYYCGLYSYSGSKNYVFGGGTKLTVL
notes: Fab format
Consider B4, for which the koff with human MuSK [5] turned out to be 0.00472 s⁻¹; in the test with mouse MuSK [6], 0.00766 s⁻¹; in the test with human MuSK [9] it was 0.0288 s⁻¹; with mouse MuSK [10], 0.0679 s⁻¹. The “Ratio pH 5.5/7.4 of off rate” value in the test with human MuSK [7] was found to be 6.1; with mouse MuSK [8] it was 8.9.
